The results in this text go back to the NTF2 design screens of Basanta et al. (2020).

The nature of this data set: protease stability score; higher = more stable; yeast display proteolysis, trypsin and chymotrypsin.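 Further: relative to predicted unfolded state with 0 unfolded-like and 1 meaning tenfold more protease.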
Regarding “DEDRKEAERIARQTLHDLRTGNEDMLTKLLDPHARIDVNGVDNIGWEIIVKHVKERRHQWRIHHEHWRDYHFINGVIHIDLEVHIRVDGVDIRTETRVHILIINGRLREIRVEVD”, the protease stability score was found to be 0.772.

Sequence “DEDRKEMEEILRLYLEAFLTGDEKLLRHLVDPHVKLDINGVRLHGMDLLIKLLIHEARFFKGMKVEIRIHRVHVQGDKVENDTELILIFDGREFRRRTFLLWLKIDGRWLLESERIE” displayed a protease stability score of 1.45. As to “DEDRKHIHHMFELWVHFLHTGNEHQLINLVDPHVKLEIGDKHHHGWEQLETFERAFKKEFKHMKIRFELTDIRLINGRMEIDGRDHLHIGDKTIERHLHLVVTKVDGRWQIHSVIVD”, the protease stability score worked out at 1.48. Take “DEDRKHMEQAITLLKRLWETGNEEDILKNLDPNVRFEVGEWVDHGRRSIEIFRERFKNLRVHDTRHKDRDVVDGRAHLHGEYNGEINGRLINTHVILVIEKVNGRWYFESIHIH”: the protease stability score is 1.19. With “DEDRKHREHLSELFQKLWLTGDWRTLWRLLDPHVRLEVLIDGKRIEKIGRENISEMLHRFLEFLGVDHRELHDMEIQGDKVHLDERIHYNGREQKLHIEFKFINGRMHEIKIRYE”, the protease stability score was 1.58. For “DEDRKHWETLLKIAFHLFRTGDEEKWERMFDPHARLHINGKDIHGREDIVHFLQEHLDHLWIEDVKVERMSVYNGVLHVDIRIHYRQGDKVYDVESSIDNIVIDGKSHRIRFDFH”, the protease stability score was 1.26.

“DEDRKIFKLVFEITKHAWETGDEEHLDRLLDPNTRIEIGDKILHGREHIEEWVDRVDHLHLHHFRLDDYRYQGDKAIIHGHVNGTSVIDGRSERYTSTIDFIVLKVNGRWRLHSVRVT” returned a protease stability score of 1.41. Consider “DEDRKLFTEATHRLNNVLETGDEDSLLRLMDPNTRYKVNGVELIGREMVKHMFRILMHHWRVKSHDYHDIEIQGDWAVIDSRVDGVIDGRRTHTQLRVESIKIDGKWFDHEVTLE”, for which the protease stability score amounted to 0.398. In the case of “DEDRKMAEHWIRIWYHLVETGDEEEINNFADPHTRMEVNGVEFHGRELVKHSNHKLLRDAGVDKIHVEIHEMRVIGNKVEIHGTIRFNGQEYHFILIVLKVNGRWVIESMKHE”, the protease stability score worked out at 0.724. “DEDRKNEEIAEKIQLRVLKTGDEDELHHLVDPNVKLHIDGREFHGMELSTHLLSRWHEKYKGLKWRLRDSQSQGDFVIIHFHVHVNGKRLRFVVIARKVDGRWVVEEIELE” had a protease stability score of 1.4. The sequence “DEDRKTVELAERLLKEMFDTGDEHTMRSLLDPNVRSNIGDWEFIGMDELSRWFEEVLKKLGVDHRSLKIKRSHTIGDKVILRSTLEFQQGDKTMKVDMRLVATKINGRWTVEEVEMK” came in with a protease stability score of 0.81.

Regarding “DEDRKVAEEVIRIITHESRTGDWDRISENLDPDARVEVDGRHVHGRERFVEFVLHARIEHSHVHDVSMINGRLKVDTELRGIWNGREIDTQVYIISLKIDGRWYLESIHIS”, the protease stability score amounted to 1.34. As for “DEDRKYVEELMRKIWEAMHTGDEKFFNNLADPHYRLRIGDKNFIGRDEFHKFLRHIRMTVEDFQERDSDEIDGVIIIIGETTYIFIVNGQEKHHVVEVEIIIIKIDGRWLLHSVNIH”, the protease stability score was 1.27. For “DEDRLREQATNFIEAMQTGDTKRVDEQIDKDAQLVVGEKKYEGREQISTFVKEMHHQFDHVRLQRVTVSGNKVLLDVVMDFNGKDLRINIVIHMNNGKISQVQVDYTNPEDAKTARG”, the protease stability score worked out at 0.914. In turn, “DEDRQDAEYALRLWLETWVTGDEDTLLRLMDPHYRLEIGEYHRHGRENVVTFLRFLVEHLGIKHTHVEVHDLDSQGDKVRAHTTLHNKYNGVELVIDSEIILTKINGRWYFKSMHFG” had a protease stability score of 1.2.

Sequence “DEDRRDAEEFIRLFHEAVQTGDEDTLRKFIDPRARIDVNGRILHGREEYLEWMREVLRFFKNVRFEVDLHDVKIVGDKIHVDTTLWTHFNGRDLELKTRVHLEKVNGVWRIKRIDFE” returned a protease stability score of 0.77. Sequence “DEDRRDAEYARDIWTETLETGDEDLLHELMDPHVRIEIGDKETHGRENYVKKFIRMGVRLKHRNDKHVTIVNGRVHLFGEFHVIINGRHHDLRVEIVIEKVNGRWVVKSIHVH” yielded a protease stability score of 0.688. With “DEDRRDIDDFLRLMLEATHTGDFKSFLELADPNMRIQIGDKEMVGRENIERWFEEDHRQAGIQRVETELRVRSKLLIGNKMHVDIEIRRRYNGVEEVYDVELILLKYNGVWWLEEFRVR”, the protease stability score was determined as 1.58. In the case of “DEDRREVQRFIESVVHAIRTGDWRRILELADPNTRLDFDGKVFHGMHVSVKRIIEELEKVKGLRIKDMTTDSVNIYNGVVELDGTLDLEIGDYESHVSAKFVLLKFNGRWFIHEESTR” it was 1.59; in that of “DEDRRHADEVLELFSEAFLTGNEEEMRKLADPHVRIDFNGRLKIGMETYKEEMDRFDHTEMRLESKHVHVFDGRVRIDGRLRIILRIGDKEIRHDHQVDILITKVDGRWIIKSMHIE”, 2.53. “DEDRRIAEHLIKLYLQSTRTGDENSIRHLMDPNTRVIVGDKDRIGREAAEELLRRVDHLHDYKIEDIRFVGDFIDVEMRVDGEFDGVREHYRVILILFKVDGRWRIHLIEIR” had a protease stability score of 1.55. Take “DEDRRLMEELTRHRIDLKKTGNEELLRTLADPNTRALVNGKDMHGREQIATWLWQFREDLGVDHIDLEDFHVQGDKMEVHLDWKVNGQRIEVIVIIYIVDGRIKKEEMHFT”: the protease stability score was 0.416. For the sequence “DEDSELAQIYNDLWRHTMETGDEHLSRRLLDPEVRLIINGREFIGWSLAIEVEHRLFKRFDHVHIDLEHITIQGDKIHTNSTLHIHFNGVTFEHRIHISIKKVNGRWINHTQRIQ”, the protease stability score came out at 0.801. In the case of “DEDSEMVWRMLEDWLHNFLTGNEELLEHLMDPNARFEQGDKEIHGREKIAKFLRKELEDLGVKIEFRDTSIKSINGRAHNDGTNIIRVNGREIRRDTRIDLTVIDGRIKEIRIEIN” it was 1.28; in that of “DEDSEQARKFTELLFESIRTGDWKSLERLFDPNTRLEVGEFEHHGMEEATKFLIELRLEDFHIHSTKIDIQGEWIHIRLDGVERGYIGDKKRDTRSHIRLDNLKINGRWINQRLIIEIR”, 1.13. The sequence “DEDSEVLSRILLHLTHHFSTGDFKEVTEMFDPHARAFVGDKELVGMELLRKFLHDLTKRLGVDHHDLRDDHIEIQGDKLRSEGKLRIDVNGREIKHHVHWILEKIDGRWVIREFRIV” displayed a protease stability score of 1.23. Sequence “DEDSKHVEHLMRLLIRLLITGDEDTLLNLIDPHARIDINGKEVHGREWAEKFIRRFERDLGVKHNHIEHIELQGDKAHVDFSLRIGDKMIQVHIDIWIVDGKLQSIRIKIK” came in with a protease stability score of 1.54.

“DEDSYNSHRALEDLWRDLETGDEENLNKLADPHARVKQGDKEFHGMHHWIHFLESLGITKVHVRIHRIQTQGDKVRIVGEIEFNGRRHHSIIFIEKINGVWLVHKMEIK” yielded a protease stability score of 1.41. For the sequence “DEDTARKQVQIYKDNDPNQLVRMFDENARLKVGDQTVDGREELERWVKRLRTRVDRYSYKNVDIQGERVVIDMVMVVDGKQVEFVVEFVVEDGRIKNAKVQARNKDEETKLQEAIG”, the protease stability score was found to be 1.37. “DEDTDWIREMHRRHTEALRTGDEDTLRDLMDPHVRIFQGDKIHIGMHDLAKFLKEWRIKEIRVDIKHIESQGDKLRFSGDVEVHFEFNGKEVDLKLKALIVIVKINGKWVFKEIHHI” returned a protease stability score of 0.862.

Consider “DEDTEAAIRILEDFTRHILTGDFERARELLDPHTRFDVNGVDLHGMDEVTRLLRIWKKRFDVWESDVHDVRSYDGRIHIDTHLRVRYDGVEEHTRTIFIFNKVNGRWLIEEIRVR”, for which the protease stability score came to 1.44.

As to “DEDTEAAREMLEIIVKSLFTGDEKSLLRLADPNWKLHQGNFSWHGRESVRRFHKEIRVHFDDIRVHRFSTINGRVHIDGHIHITVHIDGQTIHIDSDTTWHMVIINGKMHHAIIIHV”, the protease stability score came out at 0.881. In turn, “DEDTEDLKRLIKLFVDLIRTGDWEELEKLLDPNVRLHFNGRDYHGRELALELMKVFGVDHIQLREVRVVNGKAENRTELIVNGREHEEHVIMEKIDGRWRIRSFEFR” returned a protease stability score of 1.3. The sequence “DEDTEEMRRFLKAFIRALETGNFEETLRLLDPNVRIRIGDKQLIGREEWHKWRERVDHYEVDDIEIEDMRVIGNKVHVFGRVDIKLIIGDKEHQDRKEVHIIMLKVNGRWLIHEIEVH” gave a protease stability score of 1.91.

For “DEDTEEVRKADKIYIHYLLTGDEHKNNRLADPNVRLHWNGREFHGMELFTEAFREIRHELRFDHITHHHLRMFNGRLDSDTRVDGDINGVRTIFEMKLTLLKVDGRWVLKSTEIR”, the protease stability score was 1.26. As for “DEDTEEWRHLLEEYREFIETGDEDYLRTMLDPHVRVVVNGRDHHGWKAFNFMLRHIRVRHVHIHDIRLFNGQVEVDSRIDGIVNGRRLIFRLDIVAFKIDGQWIAQSFTII”, the protease stability score stood at 1.65. “DEDTEIAFELVDLVMKSLKTGDEHLMLRLMDPHTRLEVGDKEHHGWEEILKELSEIRIHLEDVDHRDVRIYGEKIHVDVEVDITIEYNGRRTRVKTRLEVDILKVNGQWRVKQVSLK” had a protease stability score of 2.07. “DEDTEIALKLHRLILHFIHTGDWENFAKYLDPRTKLHVGEFNNVGMEEIRKTWKHLRLRIDMYDERRVEVIDGRLHVEGEIRSTVHIGDKELHFERDSNFILVVINGRVKRIEINIV” had a protease stability score of 1.47. With “DEDTEKAEKFVHSFLMAMLTGDEEELWKYLDPRVRTIIGDKHYHGREQTKKAWEELGIDHSDVERFHVHIQGDKVEVHIDLRVHVNGRSYDVHIILIVTKINGKWYIDTLIFRKV”, the protease stability score came out at 1.44. As to “DEDTEKHKELLEMLVVAYLTGDFRHWWDLADPHVKLDQGDKHLHGREDMVEWIRRFIKKFKNVQVKIRHIHHQGNKDNIDGILDVDGREYHVEIIIVLVDGVIRSEEIRVK”, the protease stability score was found to be 1.87.

“DEDTEKLEKMIEELFKLWLTGDEEKLTHLADPNMRVDVNGRDLHGRHLMSSLWRQIRIEDQRLRIRDWEFFDGRVTIHSHITVRGHINGRHEEITHDVRIVVDKINGRWIIREFRIH” showed a protease stability score of 1.27. Regarding “DEDTEKLKKSLEVIWRLLHTGDENSLEHLMDPNARLDINGVTQVGRTASKIIIDRFDHIRHIHINDVRFIDGRAHVHGKTDGIQGDKRYEVSMEIILLKINGRWIIHQFYTE”, the protease stability score is 1.38. Regarding “DEDTEKVERIAKEVINLHETGDWENWSKQADPHTRVELNVDGQHFEYIGREKFREALEWLGIKHSHFHHIEIIGDKLHVDGYSFFNGRRTRVELRFVIVNGRIKHQIIIIK”, the protease stability score was determined as 0.848. Turning to “DEDTEKVRWFFEVLKRASDTGNEEEELKLLDPNARYIFNGKNDHGRRAWERFKKNLGVKHVEIHPRDFDVVDGRIHIEIELRIHVDGREIRFDIEIIVEKFNGRWYLRSIHID”, the protease stability score is 0.376. “DEDTELAERWVELFRKSVETGDEHKLEKLLDPHVKLDIGDKRYHGRELAVDTLKTMIDEMRSDHVTIDRVDVFDGRVILHSRIESTVDGRRTELEMRIVARKIDGRWVVESLEIN” showed a protease stability score of 1.49.

Regarding “DEDTELDETISREIIHAEKTGNEDWLTKLIDPNPRIEINGRIFHGMDFWLKFLKDMGVDHIDVKRDRAYNGVLDMDGYIIVNGREIRTHIHIVIVDGKATHIRIEIR”, the protease stability score worked out at 1.61. In the case of “DEDTELLKHHLDIFRDAVRTGDEEKERKYADPDDRINVDGVIFHGWEESKRFYEHWRVKDFHVHDMKVQGDKADVESRLVVQINGREVIFRVKLIITKVNGRWKHTMLEIK” it was 1.62.
